From patent US20130005646A1 (Novo Nordisk, published 2013)
Starred links: 1 amine or outer side, 2 acyl side, 3 side chain; linkers in the order of their positions; H or OH if unused. Positions of bridges follow the written chain, without caps; N, C: chain ends. *: point of attachment. C20 diacid = O=C(O)CCCCCCCCCCCCCCCCCCC(=O)*; γGlu = O=C(O)[C@H](CCC(=O)[*:2])N[*:1]

T1: human amylin 3(a) receptor (human calcitonin receptor + RAMP-3) (human) (UniProt P30988)
T1 sequence (looked up) 1: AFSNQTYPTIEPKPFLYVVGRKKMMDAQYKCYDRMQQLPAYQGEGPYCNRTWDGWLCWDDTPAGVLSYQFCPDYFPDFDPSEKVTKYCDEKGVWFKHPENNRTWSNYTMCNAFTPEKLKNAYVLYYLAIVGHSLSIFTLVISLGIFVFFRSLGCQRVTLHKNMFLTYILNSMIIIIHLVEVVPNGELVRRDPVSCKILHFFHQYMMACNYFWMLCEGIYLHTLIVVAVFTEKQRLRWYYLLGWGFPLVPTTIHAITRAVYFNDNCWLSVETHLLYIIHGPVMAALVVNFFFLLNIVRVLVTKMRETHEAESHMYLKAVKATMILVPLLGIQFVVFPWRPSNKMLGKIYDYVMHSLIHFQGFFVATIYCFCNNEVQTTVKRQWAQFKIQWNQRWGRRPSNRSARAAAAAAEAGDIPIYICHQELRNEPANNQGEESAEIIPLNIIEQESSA
T1 sequence (looked up) 2: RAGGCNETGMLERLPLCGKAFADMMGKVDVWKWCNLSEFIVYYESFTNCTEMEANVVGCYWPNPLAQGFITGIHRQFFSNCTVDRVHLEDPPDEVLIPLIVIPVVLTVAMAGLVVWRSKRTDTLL

T2: human calcitonin (a) receptor (human) (UniProt P30988)
T2 sequence (looked up): T1 sequence (looked up) 1

T3: human amylin 3(a) receptor (human calcitonin receptor + RAMP-3) (human, UniProt P30988 25-474; O60896 24-148)
T3 sequence (looked up) 1: T1 sequence (looked up) 1
T3 sequence (looked up) 2: T1 sequence (looked up) 2

T4: human calcitonin (a) receptor (human, UniProt P30988 25-474)
T4 sequence (looked up): T1 sequence (looked up) 1

T5: rat amylin 3(a) receptor (rat calcitonin(a) receptor + rat RAMP3) (rat, UniProt P32214 25-516; Q9JJ73 23-147)
T5 sequence (looked up) 1: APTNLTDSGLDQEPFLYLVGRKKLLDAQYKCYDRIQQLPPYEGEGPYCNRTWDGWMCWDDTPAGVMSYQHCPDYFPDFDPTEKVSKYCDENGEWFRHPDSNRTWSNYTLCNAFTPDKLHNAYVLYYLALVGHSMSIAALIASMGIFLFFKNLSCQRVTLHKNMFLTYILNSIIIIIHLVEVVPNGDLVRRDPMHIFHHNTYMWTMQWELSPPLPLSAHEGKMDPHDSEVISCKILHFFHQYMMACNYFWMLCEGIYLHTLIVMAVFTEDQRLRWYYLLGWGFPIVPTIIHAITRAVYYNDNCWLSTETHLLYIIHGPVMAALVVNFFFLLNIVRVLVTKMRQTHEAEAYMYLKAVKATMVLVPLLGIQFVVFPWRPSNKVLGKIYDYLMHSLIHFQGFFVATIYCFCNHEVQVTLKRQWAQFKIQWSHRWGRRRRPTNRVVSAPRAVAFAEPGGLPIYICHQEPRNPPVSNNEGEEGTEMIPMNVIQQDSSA
T5 sequence (looked up) 2: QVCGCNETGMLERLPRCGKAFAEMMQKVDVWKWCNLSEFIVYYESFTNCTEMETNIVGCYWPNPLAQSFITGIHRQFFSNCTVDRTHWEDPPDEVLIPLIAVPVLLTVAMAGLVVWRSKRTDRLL

T6: rat calcitonin (a) receptor (rat, UniProt P32214 25-516)
T6 sequence (looked up): T5 sequence (looked up) 1

B1: N-alpha-(19-carboxynonadecanoyl)-Glu-Glu-Arg-[Glu1,Pro37]-pramlintide (peptide)
peptide: {C20 diacid}-EERECNTATCATQRLANFLVHSSNNFGPILPPTNVGSNTP-NH2
modifications: disulfide 5-10
SMILES: CC[C@H](C)[C@H](NC(=O)[C@@H]1CCCN1C(=O)CNC(=O)[C@H](Cc1ccccc1)NC(=O)[C@H](CC(N)=O)NC(=O)[C@H](CC(N)=O)NC(=O)[C@H](CO)NC(=O)[C@H](CO)NC(=O)[C@H](Cc1c[nH]cn1)NC(=O)[C@@H](NC(=O)[C@H](CC(C)C)NC(=O)[C@H](Cc1ccccc1)NC(=O)[C@H](CC(N)=O)NC(=O)[C@H](C)NC(=O)[C@H](CC(C)C)NC(=O)[C@H](CCCNC(=N)N)NC(=O)[C@H](CCC(N)=O)NC(=O)[C@@H](NC(=O)[C@H](C)NC(=O)[C@@H]1CSSC[C@H](NC(=O)[C@H](CCC(=O)O)NC(=O)[C@H](CCCNC(=N)N)NC(=O)[C@H](CCC(=O)O)NC(=O)[C@H](CCC(=O)O)NC(=O)CCCCCCCCCCCCCCCCCCC(=O)O)C(=O)N[C@@H](CC(N)=O)C(=O)N[C@@H]([C@@H](C)O)C(=O)N[C@@H](C)C(=O)N[C@@H]([C@@H](C)O)C(=O)N1)[C@@H](C)O)C(C)C)C(=O)N[C@@H](CC(C)C)C(=O)N1CCC[C@H]1C(=O)N1CCC[C@H]1C(=O)N[C@H](C(=O)N[C@@H](CC(N)=O)C(=O)N[C@H](C(=O)NCC(=O)N[C@@H](CO)C(=O)N[C@@H](CC(N)=O)C(=O)N[C@H](C(=O)N1CCC[C@H]1C(N)=O)[C@@H](C)O)C(C)C)[C@@H](C)O
B2: N-alpha-[(S)-4-Carboxy-4-(19-carboxynonadecanoylamino)butyryl]-His-His-[His1,Glu14,His17,Ala25,Pro26,Ser28,Ser29]-pramlintide (peptide)
peptide: {C20 diacid-γGlu}-HHHCNTATCATQRLAEFLHHSSNNFGAPLSSTNVGSNTY-NH2
modifications: disulfide 4-9
SMILES: CC(C)C[C@H](NC(=O)[C@H](CCCNC(=N)N)NC(=O)[C@H](CCC(N)=O)NC(=O)[C@@H](NC(=O)[C@H](C)NC(=O)[C@@H]1CSSC[C@H](NC(=O)[C@H](Cc2c[nH]cn2)NC(=O)[C@H](Cc2c[nH]cn2)NC(=O)[C@H](Cc2c[nH]cn2)NC(=O)CC[C@H](NC(=O)CCCCCCCCCCCCCCCCCCC(=O)O)C(=O)O)C(=O)N[C@@H](CC(N)=O)C(=O)N[C@@H]([C@@H](C)O)C(=O)N[C@@H](C)C(=O)N[C@@H]([C@@H](C)O)C(=O)N1)[C@@H](C)O)C(=O)N[C@@H](C)C(=O)N[C@@H](CCC(=O)O)C(=O)N[C@@H](Cc1ccccc1)C(=O)N[C@@H](CC(C)C)C(=O)N[C@@H](Cc1c[nH]cn1)C(=O)N[C@@H](Cc1c[nH]cn1)C(=O)N[C@@H](CO)C(=O)N[C@@H](CO)C(=O)N[C@@H](CC(N)=O)C(=O)N[C@@H](CC(N)=O)C(=O)N[C@@H](Cc1ccccc1)C(=O)NCC(=O)N[C@@H](C)C(=O)N1CCC[C@H]1C(=O)N[C@@H](CC(C)C)C(=O)N[C@@H](CO)C(=O)N[C@@H](CO)C(=O)N[C@H](C(=O)N[C@@H](CC(N)=O)C(=O)N[C@H](C(=O)NCC(=O)N[C@@H](CO)C(=O)N[C@@H](CC(N)=O)C(=O)N[C@H](C(=O)N[C@@H](Cc1ccc(O)cc1)C(N)=O)[C@@H](C)O)C(C)C)[C@@H](C)O
B3: N-alpha-[(S)-4-Carboxy-4-(19-carboxynonadecanoylamino)butyryl]-His-His-[His1,Glu14,His17,Arg35]-pramlintide (peptide)
peptide: {C20 diacid-γGlu}-HHHCNTATCATQRLAEFLHHSSNNFGPILPPTNVGSRTY-NH2
modifications: disulfide 4-9
SMILES: CC[C@H](C)[C@H](NC(=O)[C@@H]1CCCN1C(=O)CNC(=O)[C@H](Cc1ccccc1)NC(=O)[C@H](CC(N)=O)NC(=O)[C@H](CC(N)=O)NC(=O)[C@H](CO)NC(=O)[C@H](CO)NC(=O)[C@H](Cc1c[nH]cn1)NC(=O)[C@H](Cc1c[nH]cn1)NC(=O)[C@H](CC(C)C)NC(=O)[C@H](Cc1ccccc1)NC(=O)[C@H](CCC(=O)O)NC(=O)[C@H](C)NC(=O)[C@H](CC(C)C)NC(=O)[C@H](CCCNC(=N)N)NC(=O)[C@H](CCC(N)=O)NC(=O)[C@@H](NC(=O)[C@H](C)NC(=O)[C@@H]1CSSC[C@H](NC(=O)[C@H](Cc2c[nH]cn2)NC(=O)[C@H](Cc2c[nH]cn2)NC(=O)[C@H](Cc2c[nH]cn2)NC(=O)CC[C@H](NC(=O)CCCCCCCCCCCCCCCCCCC(=O)O)C(=O)O)C(=O)N[C@@H](CC(N)=O)C(=O)N[C@@H]([C@@H](C)O)C(=O)N[C@@H](C)C(=O)N[C@@H]([C@@H](C)O)C(=O)N1)[C@@H](C)O)C(=O)N[C@@H](CC(C)C)C(=O)N1CCC[C@H]1C(=O)N1CCC[C@H]1C(=O)N[C@H](C(=O)N[C@@H](CC(N)=O)C(=O)N[C@H](C(=O)NCC(=O)N[C@@H](CO)C(=O)N[C@@H](CCCNC(=N)N)C(=O)N[C@H](C(=O)N[C@@H](Cc1ccc(O)cc1)C(N)=O)[C@@H](C)O)C(C)C)[C@@H](C)O
B4: N-alpha-[(S)-4-Carboxy-4-(19-carboxynonadecanoylamino)butyryl]-His-His-[His1,Arg3,Glu14,His17]-pramlintide (peptide)
peptide: {C20 diacid-γGlu}-HHHCRTATCATQRLAEFLHHSSNNFGPILPPTNVGSNTY-NH2
modifications: disulfide 4-9
SMILES: CC[C@H](C)[C@H](NC(=O)[C@@H]1CCCN1C(=O)CNC(=O)[C@H](Cc1ccccc1)NC(=O)[C@H](CC(N)=O)NC(=O)[C@H](CC(N)=O)NC(=O)[C@H](CO)NC(=O)[C@H](CO)NC(=O)[C@H](Cc1c[nH]cn1)NC(=O)[C@H](Cc1c[nH]cn1)NC(=O)[C@H](CC(C)C)NC(=O)[C@H](Cc1ccccc1)NC(=O)[C@H](CCC(=O)O)NC(=O)[C@H](C)NC(=O)[C@H](CC(C)C)NC(=O)[C@H](CCCNC(=N)N)NC(=O)[C@H](CCC(N)=O)NC(=O)[C@@H](NC(=O)[C@H](C)NC(=O)[C@@H]1CSSC[C@H](NC(=O)[C@H](Cc2c[nH]cn2)NC(=O)[C@H](Cc2c[nH]cn2)NC(=O)[C@H](Cc2c[nH]cn2)NC(=O)CC[C@H](NC(=O)CCCCCCCCCCCCCCCCCCC(=O)O)C(=O)O)C(=O)N[C@@H](CCCNC(=N)N)C(=O)N[C@@H]([C@@H](C)O)C(=O)N[C@@H](C)C(=O)N[C@@H]([C@@H](C)O)C(=O)N1)[C@@H](C)O)C(=O)N[C@@H](CC(C)C)C(=O)N1CCC[C@H]1C(=O)N1CCC[C@H]1C(=O)N[C@H](C(=O)N[C@@H](CC(N)=O)C(=O)N[C@H](C(=O)NCC(=O)N[C@@H](CO)C(=O)N[C@@H](CC(N)=O)C(=O)N[C@H](C(=O)N[C@@H](Cc1ccc(O)cc1)C(N)=O)[C@@H](C)O)C(C)C)[C@@H](C)O
B5: N-alpha-[(S)-4-Carboxy-4-(19-carboxynonadecanoylamino)butyryl]-[Glu1,Gly3,Glu14,Arg18,Ser21,Ser22,Ala25,Pro26,Ser28,Ser29,Glu31,Arg35]-pramlintide (peptide)
peptide: {C20 diacid-γGlu}-ECGTATCATQRLAEFLVRSSSSFGAPLSSTEVGSRTY-NH2
modifications: disulfide 2-7
SMILES: CC(C)C[C@H](NC(=O)[C@H](CCCNC(=N)N)NC(=O)[C@H](CCC(N)=O)NC(=O)[C@@H](NC(=O)[C@H](C)NC(=O)[C@@H]1CSSC[C@H](NC(=O)[C@H](CCC(=O)O)NC(=O)CC[C@H](NC(=O)CCCCCCCCCCCCCCCCCCC(=O)O)C(=O)O)C(=O)NCC(=O)N[C@@H]([C@@H](C)O)C(=O)N[C@@H](C)C(=O)N[C@@H]([C@@H](C)O)C(=O)N1)[C@@H](C)O)C(=O)N[C@@H](C)C(=O)N[C@@H](CCC(=O)O)C(=O)N[C@@H](Cc1ccccc1)C(=O)N[C@@H](CC(C)C)C(=O)N[C@H](C(=O)N[C@@H](CCCNC(=N)N)C(=O)N[C@@H](CO)C(=O)N[C@@H](CO)C(=O)N[C@@H](CO)C(=O)N[C@@H](CO)C(=O)N[C@@H](Cc1ccccc1)C(=O)NCC(=O)N[C@@H](C)C(=O)N1CCC[C@H]1C(=O)N[C@@H](CC(C)C)C(=O)N[C@@H](CO)C(=O)N[C@@H](CO)C(=O)N[C@H](C(=O)N[C@@H](CCC(=O)O)C(=O)N[C@H](C(=O)NCC(=O)N[C@@H](CO)C(=O)N[C@@H](CCCNC(=N)N)C(=O)N[C@H](C(=O)N[C@@H](Cc1ccc(O)cc1)C(N)=O)[C@@H](C)O)C(C)C)[C@@H](C)O)C(C)C

Columns and labels:
Assay in all cases: cell-based or functional assay
[1] = target: T1, human amylin 3(a) receptor (human calcitonin receptor + RAMP-3) (human)
[2] = target: T2, human calcitonin (a) receptor (human)
[3] = target: T3, human amylin 3(a) receptor (human …)
[4] = target: T4, human calcitonin (a) receptor
[5] = target: T5, rat amylin 3(a) receptor (rat …)
[6] = target: T6, rat calcitonin (a) receptor

Binder	Amylin receptor human EC50 [1] [nM]	CTa receptor human EC50 [2] [nM]	Amylin receptor human EC50 [3] [nM]	CTa receptor human EC50 [4] [nM]	Amylin receptor rat EC50 [5] [nM]	CTa receptor rat EC50 [6] [nM]
B1	0.045	0.0615	–	–	–	–
B2	–	–	0.105	0.31	0.132	0.824
B3	–	–	0.192	0.429	0.133	1.34
B4	–	–	0.0985	0.157	0.261	1.29
B5	–	–	1.44	0.672	4.51	1.75
